Holding throughout (experiment): cell_activity
What all share (details): pair value

In data set [1] the test system is VInv_T03 TALE-nuclease right monomer (synthetic construct).
The subject of data set [2] is VInv_T02 TALE-nuclease right monomer (synthetic construct).
The test system of data set [3] is VInv_T01 TALE-nuclease right monomer (synthetic construct).
Data set [4] relates to VInv_T03 TALE-nuclease left monomer (synthetic construct).
For data set [5], the system named is VInv_T01 TALE-nuclease left monomer (synthetic construct).
Data set [6] relates to VInv_T02 TALE-nuclease left monomer (synthetic construct).
Setting [7] is: S. tuberosum protoplasts, text p49 gives range up to 9.5%.
Setting [8] is: yeast beta-galactosidase assay 37 C, 0.82 at 30 C.
Setting [9] is: S. tuberosum protoplasts, endogenous locus.
[10] abbreviates: yeast beta-galactosidase assay 37 C, 0.89 at 30 C.
[11] abbreviates: yeast beta-galactosidase assay 37 C, 0.95 at 30 C.

For “CCGGACTTGCAGAGTAA (double strand) [VInv_T3 right half-site]”, the activity in data set [1] (setting [7]) is 9.9 % NHEJ. Further, the activity (relative to I-SceI) in data set [1] (setting [8]) turned out to be 0.96.

“CTTCTTTCCGATCCTCA (double strand) [VInv_T2 right half-site]” showed an activity in data set [2] (setting [9]) of 9.5 % NHEJ. The activity (relative to I-SceI) in data set [2] (setting [10]) turned out to be 0.92.

Regarding “GAAGTCCCTTAAAATCA (double strand) [VInv_T1 right half-site]”, the activity in data set [3] (setting [9]) came out at 3.6 % NHEJ. In addition, in data set [3] (setting [11]), the activity (relative to I-SceI) is 0.94.

In the case of “TAGCCTTCTTTCCGATC (double strand) [VInv_T3 left half-site]”, the activity in data set [4] (setting [7]) came out at 9.9 % NHEJ. The sequence also had an activity (relative to I-SceI) in data set [4] (setting [8]) of 0.96.

“TTCCTCCCGGATCAACC (double strand) [VInv_T1 left half-site]”: in data set [5] (setting [9]), the activity was 3.6 % NHEJ. In data set [5] (setting [11]), this sequence displayed an activity (relative to I-SceI) of 0.94.

Consider “TTCCTCTCCTCTTTCCT (double strand) [VInv_T2 left half-site]”, for which the activity in data set [6] (setting [9]) worked out at 9.5 % NHEJ. The activity (relative to I-SceI) in data set [6] (setting [10]) was 0.92.

(Values after patent US20140178561.)
